The record followed here is US20250243261A1 (CZ BIOHUB SF, published 2025).

First the molecules themselves.
B1: mAb114 VH M31S Fab (Fab, V domains shown)
VH: EVQLVESGGGLIQPGGSLRLSCAASGFALRSYDMHWVRQTIDKRLEWVSAVGPSGDTYYADSVKGRFAVSRENAKNSLSLQMNSLTAGDTAIYYCVRSDRGVAGLFDSWGQGILVTVSS
VL: DIQMTQSPSSLSASVGDRITITCRASQAFDNYVAWYQQRPGKVPKLLISAASALHAGVPSRFSGSGSGTHFTLTISSLQPEDVATYYCQNYNSAPLTFGGGTKVEIK
B2: mAb114 VH D42G-A68T-S79Y Fab (Fab, V domains shown)
VH: EVQLVESGGGLIQPGGSLRLSCAASGFALRMYDMHWVRQTIGKRLEWVSAVGPSGDTYYADSVKGRFTVSRENAKNSLYLQMNSLTAGDTAIYYCVRSDRGVAGLFDSWGQGILVTVSS
VL: DIQMTQSPSSLSASVGDRITITCRASQAFDNYVAWYQQRPGKVPKLLISAASALHAGVPSRFSGSGSGTHFTLTISSLQPEDVATYYCQNYNSAPLTFGGGTKVEIK
B3: mAb114 VH S79Y Fab (Fab, V domains shown)
VH: EVQLVESGGGLIQPGGSLRLSCAASGFALRMYDMHWVRQTIDKRLEWVSAVGPSGDTYYADSVKGRFAVSRENAKNSLYLQMNSLTAGDTAIYYCVRSDRGVAGLFDSWGQGILVTVSS
VL: DIQMTQSPSSLSASVGDRITITCRASQAFDNYVAWYQQRPGKVPKLLISAASALHAGVPSRFSGSGSGTHFTLTISSLQPEDVATYYCQNYNSAPLTFGGGTKVEIK
B4: mAb114 VH D42G Fab (Fab, V domains shown)
VH: EVQLVESGGGLIQPGGSLRLSCAASGFALRMYDMHWVRQTIGKRLEWVSAVGPSGDTYYADSVKGRFAVSRENAKNSLSLQMNSLTAGDTAIYYCVRSDRGVAGLFDSWGQGILVTVSS
VL: DIQMTQSPSSLSASVGDRITITCRASQAFDNYVAWYQQRPGKVPKLLISAASALHAGVPSRFSGSGSGTHFTLTISSLQPEDVATYYCQNYNSAPLTFGGGTKVEIK
B5: mAb114 VL S49Y Fab (Fab, V domains shown)
VH: EVQLVESGGGLIQPGGSLRLSCAASGFALRMYDMHWVRQTIDKRLEWVSAVGPSGDTYYADSVKGRFAVSRENAKNSLSLQMNSLTAGDTAIYYCVRSDRGVAGLFDSWGQGILVTVSS
VL: DIQMTQSPSSLSASVGDRITITCRASQAFDNYVAWYQQRPGKVPKLLIYAASALHAGVPSRFSGSGSGTHFTLTISSLQPEDVATYYCQNYNSAPLTFGGGTKVEIK
B6: mAb114 VL H70D Fab (Fab, V domains shown)
VH: EVQLVESGGGLIQPGGSLRLSCAASGFALRMYDMHWVRQTIDKRLEWVSAVGPSGDTYYADSVKGRFAVSRENAKNSLSLQMNSLTAGDTAIYYCVRSDRGVAGLFDSWGQGILVTVSS
VL: DIQMTQSPSSLSASVGDRITITCRASQAFDNYVAWYQQRPGKVPKLLISAASALHAGVPSRFSGSGSGTDFTLTISSLQPEDVATYYCQNYNSAPLTFGGGTKVEIK
B7: mAb114 VH I113T Fab (Fab, V domains shown)
VH: EVQLVESGGGLIQPGGSLRLSCAASGFALRMYDMHWVRQTIDKRLEWVSAVGPSGDTYYADSVKGRFAVSRENAKNSLSLQMNSLTAGDTAIYYCVRSDRGVAGLFDSWGQGTLVTVSS
VL: DIQMTQSPSSLSASVGDRITITCRASQAFDNYVAWYQQRPGKVPKLLISAASALHAGVPSRFSGSGSGTHFTLTISSLQPEDVATYYCQNYNSAPLTFGGGTKVEIK
B8: mAb114 VH A68T Fab (Fab, V domains shown)
VH: EVQLVESGGGLIQPGGSLRLSCAASGFALRMYDMHWVRQTIDKRLEWVSAVGPSGDTYYADSVKGRFTVSRENAKNSLSLQMNSLTAGDTAIYYCVRSDRGVAGLFDSWGQGILVTVSS
VL: DIQMTQSPSSLSASVGDRITITCRASQAFDNYVAWYQQRPGKVPKLLISAASALHAGVPSRFSGSGSGTHFTLTISSLQPEDVATYYCQNYNSAPLTFGGGTKVEIK
B9: mAb114 VL I19V Fab (Fab, V domains shown)
VH: EVQLVESGGGLIQPGGSLRLSCAASGFALRMYDMHWVRQTIDKRLEWVSAVGPSGDTYYADSVKGRFAVSRENAKNSLSLQMNSLTAGDTAIYYCVRSDRGVAGLFDSWGQGILVTVSS
VL: DIQMTQSPSSLSASVGDRVTITCRASQAFDNYVAWYQQRPGKVPKLLISAASALHAGVPSRFSGSGSGTHFTLTISSLQPEDVATYYCQNYNSAPLTFGGGTKVEIK
B10: mAb114 VH E72D Fab (Fab, V domains shown)
VH: EVQLVESGGGLIQPGGSLRLSCAASGFALRMYDMHWVRQTIDKRLEWVSAVGPSGDTYYADSVKGRFAVSRDNAKNSLSLQMNSLTAGDTAIYYCVRSDRGVAGLFDSWGQGILVTVSS
VL: DIQMTQSPSSLSASVGDRITITCRASQAFDNYVAWYQQRPGKVPKLLISAASALHAGVPSRFSGSGSGTHFTLTISSLQPEDVATYYCQNYNSAPLTFGGGTKVEIK
B11: mAb114 VH I41P-D42G-A68T-S79Y-I113T Fab (Fab, V domains shown)
VH: EVQLVESGGGLIQPGGSLRLSCAASGFALRMYDMHWVRQTPGKRLEWVSAVGPSGDTYYADSVKGRFTVSRENAKNSLYLQMNSLTAGDTAIYYCVRSDRGVAGLFDSWGQGTLVTVSS
VL: DIQMTQSPSSLSASVGDRITITCRASQAFDNYVAWYQQRPGKVPKLLISAASALHAGVPSRFSGSGSGTHFTLTISSLQPEDVATYYCQNYNSAPLTFGGGTKVEIK
B12: mAb114 VL N90Q Fab (Fab, V domains shown)
VH: EVQLVESGGGLIQPGGSLRLSCAASGFALRMYDMHWVRQTIDKRLEWVSAVGPSGDTYYADSVKGRFAVSRENAKNSLSLQMNSLTAGDTAIYYCVRSDRGVAGLFDSWGQGILVTVSS
VL: DIQMTQSPSSLSASVGDRITITCRASQAFDNYVAWYQQRPGKVPKLLISAASALHAGVPSRFSGSGSGTHFTLTISSLQPEDVATYYCQQYNSAPLTFGGGTKVEIK
B13: mAb114 VH I41P Fab (Fab, V domains shown)
VH: EVQLVESGGGLIQPGGSLRLSCAASGFALRMYDMHWVRQTPDKRLEWVSAVGPSGDTYYADSVKGRFAVSRENAKNSLSLQMNSLTAGDTAIYYCVRSDRGVAGLFDSWGQGILVTVSS
VL: DIQMTQSPSSLSASVGDRITITCRASQAFDNYVAWYQQRPGKVPKLLISAASALHAGVPSRFSGSGSGTHFTLTISSLQPEDVATYYCQNYNSAPLTFGGGTKVEIK
B14: mAb114 VL V43A Fab (Fab, V domains shown)
VH: EVQLVESGGGLIQPGGSLRLSCAASGFALRMYDMHWVRQTIDKRLEWVSAVGPSGDTYYADSVKGRFAVSRENAKNSLSLQMNSLTAGDTAIYYCVRSDRGVAGLFDSWGQGILVTVSS
VL: DIQMTQSPSSLSASVGDRITITCRASQAFDNYVAWYQQRPGKAPKLLISAASALHAGVPSRFSGSGSGTHFTLTISSLQPEDVATYYCQNYNSAPLTFGGGTKVEIK
B15: mAb114 VL F29I Fab (Fab, V domains shown)
VH: EVQLVESGGGLIQPGGSLRLSCAASGFALRMYDMHWVRQTIDKRLEWVSAVGPSGDTYYADSVKGRFAVSRENAKNSLSLQMNSLTAGDTAIYYCVRSDRGVAGLFDSWGQGILVTVSS
VL: DIQMTQSPSSLSASVGDRITITCRASQAIDNYVAWYQQRPGKVPKLLISAASALHAGVPSRFSGSGSGTHFTLTISSLQPEDVATYYCQNYNSAPLTFGGGTKVEIK

This experiment concerns the target Ebola GP ectodomain (Mayinga, Zaire, 1976) with the mucin-like domain deleted (Zaire ebolavirus (Mayinga, 1976), UniProt Q05320 33-650).
As for B1, the Kd is 0.1 nM.

With B2, the Kd is 0.19 nM.

Regarding B3, the Kd turned out to be 0.1 nM.

B4 gave a Kd of 0.2 nM.

For the molecule B5, the Kd worked out at 0.6 nM.

B6 had a Kd of 0.3 nM. This Kd lies about 2-fold lower than the previous one.

Molecule B7 yielded a Kd of 0.07 nM.

In turn, B8 displayed a Kd of 0.1 nM.

Turning to B9, the Kd amounted to 0.2 nM. Compared with the last molecule, the Kd is about 2-fold higher.

The molecule B10 showed a Kd of 0.1 nM.

With B11, the equilibrium dissociation constant (Kd) was determined as 0.19 nM.

In the case of B12, the affinity, expressed as Kd, was 4 nM.

Consider B13, for which the equilibrium dissociation constant (Kd) is 0.3 nM.

For the molecule B14, the Kd turned out to be 0.07 nM. Compared with the last molecule, the Kd is about 4.3-fold lower.

Regarding B15, the affinity, expressed as Kd, was 0.5 nM.

Usually Kd stands for a measure of binding affinity in units of concentration. A high value points to weaker binding.
